From patent US20220056118A1 (UNIVERSITY OF BRITISH COLUMBIA, published 2022) come the findings set out here.

Test [1] addresses T1, DAGWGNLc (SEQ ID NO: 9) peptide conjugated to bovine serum albumin (human; bovine, UniProt P02769 25-607, N-terminus acetylated; C-terminal Cys conjugated to BSA).
T1 construct: TDP-43 residues 65-71 plus an added C-terminal cysteine; also called Peptide conjugated to bovine serum albumin (BSA)
Description: SPR, peptide-BSA immobilized (about 50 RU), antibody injected, Langmuir 1:1 fit. Here is the method: Surface plasmon resonance (SPR) analysis was used to measure the binding kinetics of monoclonal antibodies to the peptide epitope. Peptide conjugated to bovine serum albumin (BSA) was immobilized at a very low density (approximately 50 RUs) on flow cells of a sensor chip. Purified mouse or rabbit monoclonal antibodies diluted 4-fold from 31.25 nM to 0.24 nM were injected sequentially over the surfaces for approximately 5 min followed by dissociation in buffer and surface regeneration. Binding parameters were calculated using kinetic curve fitting and a Langmuir 1:1 interaction model.
For orientation: Surface plasmon resonance follows binding to a sensor surface in real time, without labels.

Test [2] has as its target T2, HA-tagged wild-type human TDP-43 with the original NLS sequence (WT-TDP43) (human, UniProt Q13148 1-414).
T2 construct: whole, on cells; Overexpressed inside transfected HEK293FT cells; also called wildtype TDP-43-HA; WT nuclear TDP-43-HA; not shown: HA tag
Description: immunocytochemistry, transfected HEK293FT cells; column: Binding to nuclear WT TDP-43.

In test [3] the target is T3, endogenous TDP-43 of HEK293FT cells (human, UniProt Q13148 1-414).
T3 construct: whole, on cells; Two states of the same protein are tested: nuclear in cells transfected with empty vector, and in the stress granules of cells stressed with sodium arsenite; the state is named in each row; also called endogenous, nuclear WT TDP-43; TDP-43 in physiologic stress granules
T3 sequence (Q13148 whole entry): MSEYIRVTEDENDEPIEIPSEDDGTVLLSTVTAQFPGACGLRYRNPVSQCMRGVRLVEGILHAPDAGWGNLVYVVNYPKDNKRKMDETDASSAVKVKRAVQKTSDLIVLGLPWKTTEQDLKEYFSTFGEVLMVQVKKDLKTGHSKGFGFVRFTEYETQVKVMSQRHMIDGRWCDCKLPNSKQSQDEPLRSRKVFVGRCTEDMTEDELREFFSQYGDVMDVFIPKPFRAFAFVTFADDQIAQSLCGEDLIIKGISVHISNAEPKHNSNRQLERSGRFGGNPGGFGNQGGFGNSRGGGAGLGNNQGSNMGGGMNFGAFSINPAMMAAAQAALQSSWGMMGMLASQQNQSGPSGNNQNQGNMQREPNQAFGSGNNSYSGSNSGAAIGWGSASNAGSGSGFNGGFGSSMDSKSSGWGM
In words: immunocytochemistry, arsenite-stressed HEK293FT cells; column: Binding to stress granules.

T1 sequence (P02769 25-607 limits assumed): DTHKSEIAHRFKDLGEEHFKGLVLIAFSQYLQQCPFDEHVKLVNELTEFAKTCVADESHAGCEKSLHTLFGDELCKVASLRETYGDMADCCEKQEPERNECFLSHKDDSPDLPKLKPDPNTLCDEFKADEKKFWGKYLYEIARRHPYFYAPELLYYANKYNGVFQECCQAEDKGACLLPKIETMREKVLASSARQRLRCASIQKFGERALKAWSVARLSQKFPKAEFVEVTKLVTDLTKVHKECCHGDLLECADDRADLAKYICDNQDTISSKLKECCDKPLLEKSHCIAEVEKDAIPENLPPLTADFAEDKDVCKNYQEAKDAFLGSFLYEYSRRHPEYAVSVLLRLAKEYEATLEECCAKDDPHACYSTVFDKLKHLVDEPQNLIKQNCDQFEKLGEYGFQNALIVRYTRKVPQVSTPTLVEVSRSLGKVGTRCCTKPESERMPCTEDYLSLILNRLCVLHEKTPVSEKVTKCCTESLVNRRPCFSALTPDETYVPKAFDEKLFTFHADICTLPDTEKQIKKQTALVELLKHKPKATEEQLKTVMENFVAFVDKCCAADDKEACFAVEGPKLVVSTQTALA
T2 sequence (Q13148 whole entry): as the sequence (Q13148 whole entry) above

B1: mouse monoclonal antibody 2F7 (antibody, V domains shown)
VH: DVKLVESGGGLVKLGGSLKLSCAASGFTFSSYYMSWVRQTPEKRLELVATINSNGGSTYYPDTVKGRITISRDNAKNTLQLQMSSLRSEDTALYYCVRQNYEGAYWGQGTLVTVSA
VL: DVLMTQTPLSLPVTLGDQASISCRSSQSIVHSNGNTYLEWYLQKPGQSPKLLIYKVSNRFSGVPDRFSGSGSGTDFTLKISRVEAEDLGVYYCFQSSHVPWTFGGGTKLEIK
notes: Mouse hybridoma antibody; also called Mouse 2F7
Turning to B1, in test [1], binding was characterised by a dissociation constant (Kd) of 0.622 nM, the koff (usually the first-order rate constant of dissociation) is 0.00176 s⁻¹ and the kon (commonly the second-order rate constant of association) came out at 2.83e+06 M⁻¹ s⁻¹.

B2: mouse monoclonal antibody 3E8 (antibody, V domains shown)
VH: DVKLVESGGGLVKLGGSLKLSCAASGFTFSSYYMSWVRQTPEKRLELVATINSNGGSTYYPDTVKGRITISRDNAKNTLQLQMSSLRSEDTALYYCVRQNYEGAYWGQGTLVTVSA
VL: DVLMTQTPLSLPVTLGDQASISCRSSQSIVHSNGNTYLEWYLQKPGQSPKLLIYKVSNRFSGVPDRFSGSGSGTDFTLKISRVEAEDLGVYYCFQSSHVPWTFGGGTKLEIK
notes: Mouse hybridoma antibody; also called Mouse 3E8
On to B2, for which, in test [1], the Kd – broadly, the constant that tells how readily two partners part at equilibrium – came to 0.722 nM; the koff was found to be 0.002 s⁻¹; the kon is 2.77e+06 M⁻¹ s⁻¹.

B3: rabbit monoclonal antibody 17 (17H3-17K3) (antibody, V domains shown)
VH: QEQLVESGGGLVQPGASLTLTCTASGFSFSSSYVMCWVRQAPGKGLEWITCSDTGINTWYASWAKGRFTISKTSSTTVTLQMTSLTAADTATYFCARRYTGDTYLGNFNLWGQGTLVTVS
VL: AQVLTQTPASVSAAVGGTVTINCQASQSVYKNNYLSWYQQKPGQPPKLLIYKASTLASGVPSRFKGSGSGTQFTLTISDVQCDDAATYYCAGGWRSLNAFGGGTEVVVK
notes: Recombinant; also called Rabbit 17; clone 17
As for B3, in test [1], binding was put at a Kd of 0.0919 nM, the koff amounted to 4.32e-05 s⁻¹ and the kon is 470000 M⁻¹ s⁻¹.

B4: rabbit monoclonal antibody 14 (14H1-14K2) (antibody, V domains shown)
VH: QEQLEESGGDLVKPEGSLTLTCTASGFSFSSNYVMCWVRQAPGKGLEWVACIWFAGIVDTTYYATWAKGRFTISKTSSTTVTLQMTSLTAADTATYFCARNPVGSVNLWGQGTLVTVS
VL: VMTQTPSSKSVPVGGSVTINCQASESVYSNNRLSWYQQKPGQPPKLLIYYASTLESGVPSRFKGSGFGTHFTLTISGAQCDDAATYYCAGWRGARTDGVDFGGGTEVVVK
notes: Recombinant; also called Rabbit 14; clone 14
Consider B4, for which, in test [1], the Kd is 0.0151 nM, the koff is 9.04e-06 s⁻¹ and the kon turned out to be 599000 M⁻¹ s⁻¹. Also, the binding result in test [2] is “no binding (tested: 10 ug/ml)”. The binding result in test [3] is reported as “no binding (tested: 10 ug/ml)”.

B5: rabbit monoclonal antibody 1 (1H3-1K3) (antibody, V domains shown)
VH: QSVEESGGRLVTPGTPLTLTCTVSGFSLSRYYMTWVRQAPGKGLEYIGVIIPGGTTYYASWAKGRFTISKTSTTVDLRITSPTTEDTATYFCAGGPTGNSHFTLWGQGTLVTVS
VL: VMTQTPSSKSVPVGGTVTINCQASESVYNNNHLSWYQQKSGQPPKLLIYEASKLESGVPPRFKGSGSGTQFTLTISDVVCDDAATYYCSGYKRVTTDGIAFGGGTEVVVK
notes: Recombinant; also called Rabbit 1; clone 1
As for B5, in test [1], the Kd was 0.062 nM, the koff amounted to 2.5e-05 s⁻¹ and the kon was 403000 M⁻¹ s⁻¹.

B6: rabbit monoclonal antibody 38 (38H1-38K1) (antibody, V domains shown)
VH: QSVEESGGRLVTPGTPLTLTCTVSGFSFSAYYMTWVRQAPGKGLEFIGVTIPIGRTYYASWAKGRFTISKTSTTVHLKITSPTTEDTAAYFCAGGPTGNSHFTLWGQGTLVTVS
VL: VMTQTPSSKSVPVGDTVTINCQASESVYNNNQLSWYQQKPGQPPKLLIYQASKLESGVPSRFKGSGSGTQFTLTISDVVCDDAATYYCAGYKSPTTDGIAFGGGTEVVVK
notes: Recombinant; also called clone 38
B6: the binding result in test [2] and in test [3] was “no binding (tested: 10 ug/ml)” each time.
